The target in this data set is HCoV-OC43 N WT (Human coronavirus OC43, UniProt P33469 1-448). The data set is described as follows: SPR.
Sequence of HCoV-OC43 N WT (P33469 whole entry): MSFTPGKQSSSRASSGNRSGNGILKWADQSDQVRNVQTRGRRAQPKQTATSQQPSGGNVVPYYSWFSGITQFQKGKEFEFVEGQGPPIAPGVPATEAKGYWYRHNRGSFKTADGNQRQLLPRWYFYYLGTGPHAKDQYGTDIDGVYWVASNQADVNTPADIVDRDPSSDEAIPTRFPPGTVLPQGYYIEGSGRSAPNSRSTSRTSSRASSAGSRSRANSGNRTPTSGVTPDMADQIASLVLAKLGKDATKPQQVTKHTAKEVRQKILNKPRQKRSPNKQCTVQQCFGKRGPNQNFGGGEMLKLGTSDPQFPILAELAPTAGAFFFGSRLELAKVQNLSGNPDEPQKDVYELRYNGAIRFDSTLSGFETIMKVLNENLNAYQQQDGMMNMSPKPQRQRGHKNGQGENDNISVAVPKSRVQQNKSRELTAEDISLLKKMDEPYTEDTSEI

B1: (UCUAAAC)4 28-mer (ssRNA)
RNA: UCUAAACUCUAAACUCUAAACUCUAAAC
B1 returned a dissociation constant (Kd) of 0.0117 ± 0.00082 µM.
